Measured values from PMC4282539.

Molecular target: NNN-GFPglyc (GnTI CTS region fused to the glycosylation reporter GFPglyc) (Nicotiana tabacum (legend of Figure 1 and methods); the running text says N. benthamiana)
Assay: FRET or BRET; two-photon FRET-FLIM in living N. benthamiana leaf epidermal cells, Golgi bodies, leaves treated with 25 uM latrunculin B; donor NNN-GFPglyc, acceptor CTS-mRFP; a decrease of the donor lifetime by 0.20 ns or 8% taken as interaction

FRET efficiency E	donor lifetime with acceptor (tau DA)	lifetime contrast (delta tau)	Substance
14.6%	2.08 ns	0.36 ns	NNN-mRFP (GnTI CTS region fused to mRFP) (domain or fragment)
10.8%	2.18 ns	0.26 ns	RNN-mRFP (chimeric CTS region: ST cytoplasmic tail, GnTI transmembrane domain and stem, fused to mRFP) (from UniProt P13721 1-9)
